Laboratory results from PMC8892091 (The Journal of Biological Chemistry, 2022).

B1: ZMYND11 peptide (V71 to K151) (domain or fragment, human, UniProt Q15326 71-151, looked up)
chain: VGCKGSKAGIEQEGYWLPGDEIDWETENHDWYCFECHLPGEVLICDLCFRVYHSKCLSDEFRLRDSSSPWQCPVCRSIKKK
B2: ALKBH6 (crystallised, ALKBH6∙Mn2+∙α-KG; holo-ALKBH6) (enzyme, human, UniProt Q3KRA9 1-238, looked up)
chain: MEEQDARVPALEPFRVEQAPPVIYYVPDFISKEEEEYLLRQVFNAPKPKWTQLSGRKLQNWGGLPHPRGMVPERLPPWLQRYVDKVSNLSLFGGLPANHVLVNQYLPGEGIMPHEDGPLYYPTVSTISLGSHTVLDFYEPRRPEDDDPTEQPRPPPRPTTSLLLEPRSLLVLRGPAYTRLLHGIAAARVDALDAASSPPNAAACPSARPGACLVRGTRVSLTIRRVPRVLRAGLLLGK

How the values were obtained:
[1] = target: His-tag labeled ALKBH6 (human, UniProt Q3KRA9 1-238, fluorescent label on the His-tag (His-tag labeling kit RED-tris-NTA)); experiment: MST
[2] = target: the molecule itself; experiment: crystal structure

Row | Binder | fold higher binding affinity than ALKBH6 itself [1] | binding result [2]
1 | B1 | 3.5 fold | –
2 | B2 | – | binds
